Patent publication US20210040194A1

Key:
Assay in all cases: cell-based or functional assay
[1] = biological target: Human ANG-2 (huAng2) (human) (UniProt O15123)
cyno Ang2 (cyno) = biological target: cyno Ang2 (cyno)
mouse Ang2 (mouse) = mouse Ang2 (mouse) (UniProt O35608)
Sequence of mouse Ang2 (mouse) (O35608 19-496 limits assumed): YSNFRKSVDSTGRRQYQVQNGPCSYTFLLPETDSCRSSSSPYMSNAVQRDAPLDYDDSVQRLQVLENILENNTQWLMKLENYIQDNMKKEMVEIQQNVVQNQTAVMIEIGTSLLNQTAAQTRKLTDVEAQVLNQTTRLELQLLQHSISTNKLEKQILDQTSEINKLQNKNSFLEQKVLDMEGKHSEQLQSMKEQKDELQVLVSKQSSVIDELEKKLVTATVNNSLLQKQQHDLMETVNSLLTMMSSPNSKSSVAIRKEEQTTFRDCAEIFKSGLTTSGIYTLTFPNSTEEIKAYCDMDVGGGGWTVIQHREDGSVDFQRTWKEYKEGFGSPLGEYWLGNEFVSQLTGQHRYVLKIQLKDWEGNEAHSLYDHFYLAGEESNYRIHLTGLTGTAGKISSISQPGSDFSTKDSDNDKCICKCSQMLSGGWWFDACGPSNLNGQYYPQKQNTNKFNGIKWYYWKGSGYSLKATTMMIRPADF

Sequence of Human ANG-2 (huAng2) (human) (O15123 19-496 limits assumed): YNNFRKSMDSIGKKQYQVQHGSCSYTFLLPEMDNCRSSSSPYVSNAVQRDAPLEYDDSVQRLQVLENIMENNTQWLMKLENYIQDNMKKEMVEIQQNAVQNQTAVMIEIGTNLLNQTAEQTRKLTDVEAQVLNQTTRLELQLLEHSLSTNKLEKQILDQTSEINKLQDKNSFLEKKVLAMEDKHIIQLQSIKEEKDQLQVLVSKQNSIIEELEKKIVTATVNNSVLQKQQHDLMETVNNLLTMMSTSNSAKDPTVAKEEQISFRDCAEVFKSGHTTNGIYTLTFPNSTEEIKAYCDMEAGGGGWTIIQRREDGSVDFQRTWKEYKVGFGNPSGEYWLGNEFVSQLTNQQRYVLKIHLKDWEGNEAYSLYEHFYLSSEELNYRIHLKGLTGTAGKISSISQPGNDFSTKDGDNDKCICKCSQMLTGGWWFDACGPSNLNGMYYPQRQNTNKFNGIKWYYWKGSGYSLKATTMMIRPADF

Hu pTie2 EC50 (nM), Hek293-Tie2 cells [1]: 2.65 nM
Cyno pTie2 EC50 (nM) (cyno Ang2 (cyno)): 33.2 nM
Mu pTie2 EC50 (nM) (mouse Ang2 (mouse)): 137 nM
Substance: MEDI3617 (antibody)
